According to patent publication US20230272099A1 (Chugai, published 2023):
Where a chain is given by its changes, count along the chain named.

T1: human FcgRIIb extracellular domain (human, UniProt P31994 43-217)
T1 construct: extracellular domain; also called hFcgRIIb
T1 sequence (looked up): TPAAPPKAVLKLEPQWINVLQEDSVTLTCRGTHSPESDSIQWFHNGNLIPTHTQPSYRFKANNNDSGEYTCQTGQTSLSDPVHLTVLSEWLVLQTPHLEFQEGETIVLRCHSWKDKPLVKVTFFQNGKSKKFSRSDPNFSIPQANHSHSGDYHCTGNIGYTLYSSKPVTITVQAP

T2: human FcgRIIa type R extracellular domain (human, UniProt P12318 34-217)
T2 construct: extracellular domain; also called hFcgRIIaR
T2 sequence (looked up): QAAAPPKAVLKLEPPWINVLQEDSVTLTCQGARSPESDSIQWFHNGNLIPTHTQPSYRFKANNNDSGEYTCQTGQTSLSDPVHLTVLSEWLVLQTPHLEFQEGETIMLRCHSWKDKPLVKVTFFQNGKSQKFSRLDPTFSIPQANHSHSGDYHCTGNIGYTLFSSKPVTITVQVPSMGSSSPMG

T3: human FcgRIIa type H extracellular domain (human, UniProt P12318 34-217)
T3 construct: extracellular domain; also called hFcgRIIaH
T3 sequence (looked up): T2 sequence (looked up) with R134H

B1: A375-G1T3/B167-Lamlib (antibody, human IgG1, lambda)
heavy: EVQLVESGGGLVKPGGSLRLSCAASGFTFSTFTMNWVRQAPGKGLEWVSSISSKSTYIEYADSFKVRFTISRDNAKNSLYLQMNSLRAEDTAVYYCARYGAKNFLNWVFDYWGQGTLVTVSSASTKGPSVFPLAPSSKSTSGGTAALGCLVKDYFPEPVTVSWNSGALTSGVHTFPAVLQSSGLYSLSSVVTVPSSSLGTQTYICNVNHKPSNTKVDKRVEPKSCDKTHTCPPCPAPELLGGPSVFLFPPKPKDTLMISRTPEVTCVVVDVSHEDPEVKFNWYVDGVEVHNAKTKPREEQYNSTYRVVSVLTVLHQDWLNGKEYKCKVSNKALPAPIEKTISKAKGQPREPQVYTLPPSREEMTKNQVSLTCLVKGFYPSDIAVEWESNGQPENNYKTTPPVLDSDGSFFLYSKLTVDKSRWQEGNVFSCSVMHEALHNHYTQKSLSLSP
light: QSALTQPPSASGSPGQTVTISCTGTRYDVGYYEYVSWYQQHPGKAPKLMIYETSKRLSGVPDRFSGSKSGNTASLTVSGLQAEDEADYYCSSYRYEHQVSFGGGTKLTVLGQPKAAPSVTLFPPSSEELQANKATLVCLISDFYPGAVTVAWKADSSPVKAGVETTTPSKQSNNKYAASSYLSLTPEQWKSHRSYSCQVTHEGSTVEKTVAPTECS
notes: copies: 2 + 2
B2: A375-MY201a/B167-Lamlib (antibody, human IgG1, lambda)
heavy: EVQLVESGGGLVKPGGSLRLSCAASGFTFSTFTMNWVRQAPGKGLEWVSSISSKSTYIEYADSFKVRFTISRDNAKNSLYLQMNSLRAEDTAVYYCARYGAKNFLNWVFDYWGQGTLVTVSSASTKGPSVFPLAPSSKSTSGGTAALGCLVKDYFPEPVTVSWNSGALTSGVHTFPAVLQSSGLYSLSSVVTVPSSSLGTQTYICNVNHKPSNTKVDKRVEPKSCDKTHTCPPCPAPELLNGPSVFLFPPKPKDTLMISRTPEVTCVVVDVSDEDPEVKFNWYVDGVEVHNAKTKPREEQYNSTYRVVSVLTVLHQDWLNGKEYKCKVSNKALPKPIEKTISKAKGQPREPQVYTLPPSREEMTKNQVSLTCLVKGFYPSDIAVEWESNGQPENNYKTTPPVLDSDGSFFLYSKLTVDKSRWQQGNVFSCSVMHEALHNHYTQKSLSLSP
light: B1 light
notes: copies: 2 + 2
B3: A375-TT11/B167-Lamlib (antibody, human IgG1, lambda)
heavy: B2 heavy with R219K, L239Y, N241G, P243D, T255V, D273H, T312P
light: B1 light
notes: copies: 2 + 2
B4: A375-P253/B167-Lamlib (antibody, human IgG1, lambda)
heavy: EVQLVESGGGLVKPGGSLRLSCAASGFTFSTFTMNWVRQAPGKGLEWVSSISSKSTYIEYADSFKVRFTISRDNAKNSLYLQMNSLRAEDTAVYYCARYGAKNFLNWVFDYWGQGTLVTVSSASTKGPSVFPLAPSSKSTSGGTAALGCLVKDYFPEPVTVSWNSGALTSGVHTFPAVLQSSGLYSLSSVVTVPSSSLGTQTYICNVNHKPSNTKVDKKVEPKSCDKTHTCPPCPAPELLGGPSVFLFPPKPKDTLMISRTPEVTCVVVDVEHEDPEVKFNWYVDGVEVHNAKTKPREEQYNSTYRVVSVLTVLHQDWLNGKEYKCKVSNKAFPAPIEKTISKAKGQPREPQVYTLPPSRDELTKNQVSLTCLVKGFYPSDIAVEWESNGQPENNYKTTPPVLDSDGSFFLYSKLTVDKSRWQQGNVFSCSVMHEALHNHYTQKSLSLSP
light: B1 light
notes: copies: 2 + 2
B5: A375-MY518a/B167-Lamlib (antibody, human IgG1, lambda)
heavy: B2 heavy with L240W, Q300L, K331T
light: B1 light
notes: copies: 2 + 2
B6: A375-MY518/B167-Lamlib (antibody, human IgG1, lambda)
heavy: B2 heavy with R219K, L240W, Q300L, K331T
light: B1 light
notes: copies: 2 + 2
B7: A375-P587/B167-Lamlib (antibody, human IgG1, lambda)
heavy: EVQLVESGGGLVKPGGSLRLSCAASGFTFSTFTMNWVRQAPGKGLEWVSSISSKSTYIEYADSFKVRFTISRDNAKNSLYLQMNSLRAEDTAVYYCARYGAKNFLNWVFDYWGQGTLVTVSSASTKGPSVFPLAPSSKSTSGGTAALGCLVKDYFPEPVTVSWNSGALTSGVHTFPAVLQSSGLYSLSSVVTVPSSSLGTQTYICNVNHKPSNTKVDKKVEPKSCDKTHTCPPCPAPDLLGGDSVFLFPPKPKDTLMISRTPEVTCVVIDVAEEDGEVKFNWYVDGVEVHNAKTKPREEQYNSTYRVVSVLTVLHQDWLNGKEYKCKVSNKALPAPIEKTISKAKGQPREPQVYTLPPSRDELTKNQVSLTCLVKGFYPSDIAVEWESNGQPENNYKTTPPVLDSDGSFFLYSKLTVDKSRWQQGNVFSCSVMHEALHNHYTQKSLSLSP
light: B1 light
notes: copies: 2 + 2
B8: A375-MY201aPh/B167-Lamlib (antibody, human IgG1, lambda)
heavy: B2 heavy with L240W
light: B1 light
notes: copies: 2 + 2

biological target: human FcRn (human, UniProt P55899 24-290; P61769 21-119); experiment: SPR 25C pH 6.0, steady state
Sequence (P55899 24-290 limits assumed, chain 1 of 2): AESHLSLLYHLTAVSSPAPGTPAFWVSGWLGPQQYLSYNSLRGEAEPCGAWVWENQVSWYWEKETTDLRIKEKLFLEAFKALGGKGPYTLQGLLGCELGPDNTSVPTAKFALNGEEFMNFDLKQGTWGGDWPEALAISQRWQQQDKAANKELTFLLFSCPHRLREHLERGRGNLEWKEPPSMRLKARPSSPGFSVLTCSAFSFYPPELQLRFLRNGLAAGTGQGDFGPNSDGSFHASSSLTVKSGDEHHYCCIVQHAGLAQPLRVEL
Sequence (P61769 21-119 limits assumed, chain 2 of 2): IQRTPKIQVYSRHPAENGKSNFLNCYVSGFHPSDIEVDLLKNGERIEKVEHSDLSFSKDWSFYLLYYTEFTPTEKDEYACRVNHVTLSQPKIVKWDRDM
Experimental: Biacore T200 (GE Healthcare) was used to assess the binding activity to human FcRn. Measurement was performed at 25° C. using 50 mM phosphate, 150 mM NaCl, 0.05 w/v %-P20, pH 6.0 as buffer. Human FcRn proteins used for this determination were prepared by the procedure described in WO2010107110. About 400 RU of antibody was captured using a sensor chip immobilized with CaptureSelect™ Human Fab-lambda Kinetics Biotin Conjugate (Thermo Fisher Scientific) as a molecule for ligand capturing, followed by the binding of human FcRn diluted in measuring buffer. The activity of the respective antibodies to bind FcRn was assessed by calculating KD(mol/L) by the steady-state model using Biacore T200 Evaluation Software 2.0.

Row | Binder | Kd [nM]
1 | B1 | 1270
2 | B2 | 1190
3 | B3 | 1560
4 | B4 | 1420
5 | B5 | 1320
6 | B6 | 1270
7 | B7 | 1700
8 | B8 | 1180

biological target: T1, human FcgRIIb extracellular domain; experiment: SPR 25C
Experimental: (§1) Biacore T200 (GE Healthcare) was used to evaluate the binding activity to the respective human Fcγ receptor (hereafter referred to as FcγR). Measurement was performed at 25° C. using 50 mM phosphate, 150 mM NaCl, 0.05 w/v %-P20, pH 7.4 as buffer. About 1000 RU of antibody was captured using a sensor chip immobilized with CaptureSelect™ Human Fab-lambda Kinetics Biotin Conjugate (Thermo Fisher Scientific) as a molecule for ligand capturing. Human FcγR was diluted to 8 nM for FcγRIa and 1000 nM for other FcγR in the measurement buffer, and it was interacted to the captured antibody. The binding activity of each antibody to FcγR was assessed by calculating the binding amount of FcγR (RU) per unit amount of antibody using Biacore T200 Evaluation Software 2.0.

Row | Binder | binding per 1RU antibody [RU] | relative binding (A375-G1T3/B167-Lamlib=1)
9 | B1 | 0.011 | 1
10 | B2 | 0.0401 | 3.66
11 | B3 | 0.0477 | 4.35
12 | B4 | 0.156 | 14.3
13 | B5 | 0.0489 | 4.46
14 | B6 | 0.0482 | 4.4
15 | B7 | 0.143 | 13
16 | B8 | 0.0313 | 2.85

biological target: T4, human FcgRIa extracellular domain (human, UniProt P12314 16-292); experiment: SPR 25C
T4 construct: extracellular domain; also called hFcgRIa
T4 sequence (P12314 16-292): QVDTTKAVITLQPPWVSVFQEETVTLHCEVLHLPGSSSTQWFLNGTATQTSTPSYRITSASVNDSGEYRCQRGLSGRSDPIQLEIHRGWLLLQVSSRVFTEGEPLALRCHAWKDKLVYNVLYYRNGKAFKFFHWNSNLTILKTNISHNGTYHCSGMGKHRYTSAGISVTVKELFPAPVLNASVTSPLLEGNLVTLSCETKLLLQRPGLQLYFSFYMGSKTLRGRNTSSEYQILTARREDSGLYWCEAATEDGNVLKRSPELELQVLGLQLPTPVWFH
Experimental: as §1

Row | Binder | binding per 1RU antibody [RU] | relative binding (A375-G1T3/B167-Lamlib=1)
17 | B1 | 0.0813 | 1
18 | B2 | 0.0396 | 0.49
19 | B4 | 0.0937 | 1.15
20 | B5 | 0.0033 | 0.04
21 | B6 | 0.002 | 0.02
22 | B7 | 0.0962 | 1.18
23 | B8 | 0.004 | 0.05

biological target: T5, human FcgRIIIa V158 extracellular domain (human, UniProt P08637 17-208); experiment: SPR 25C
T5 construct: extracellular domain; also called hFcgRIIIaV
T5 sequence (P08637 17-208 F176V): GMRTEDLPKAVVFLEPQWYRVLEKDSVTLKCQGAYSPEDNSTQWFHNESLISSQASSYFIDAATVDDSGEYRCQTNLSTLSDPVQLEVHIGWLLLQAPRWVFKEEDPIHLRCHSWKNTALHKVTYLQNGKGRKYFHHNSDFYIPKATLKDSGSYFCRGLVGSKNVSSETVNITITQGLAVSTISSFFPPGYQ
Experimental: as §1

Row | Binder | binding per 1RU antibody [RU] | relative binding (A375-G1T3/B167-Lamlib=1)
24 | B1 | 0.07 | 1
25 | B2 | 0.0024 | 0.03
26 | B3 | -0.001 | -0.01
27 | B4 | 0.0019 | 0.03
28 | B5 | 0.0009 | 0.01
29 | B6 | 0.0015 | 0.02
30 | B7 | 0.0001 | 0
31 | B8 | 0.0011 | 0.02

biological target: T2, human FcgRIIa type R extracellular …; experiment: SPR 25C
Experimental: as §1

Row | Binder | binding per 1RU antibody [RU] | relative binding (A375-G1T3/B167-Lamlib=1)
32 | B1 | 0.0463 | 1
33 | B2 | 0.0338 | 0.73
34 | B4 | 0.168 | 3.62
35 | B5 | 0.047 | 1.01
36 | B6 | 0.046 | 0.99
37 | B7 | 0.0371 | 0.8
38 | B8 | 0.0335 | 0.72

biological target: T3, human FcgRIIa type H extracellular …; experiment: SPR 25C
Experimental: as §1

Row | Binder | binding per 1RU antibody [RU] | relative binding (A375-G1T3/B167-Lamlib=1)
39 | B1 | 0.0567 | 1
40 | B2 | 0.0534 | 0.94
41 | B3 | 0.002 | 0.03
42 | B4 | 0.0497 | 0.88
43 | B5 | 0.0479 | 0.84
44 | B6 | 0.0465 | 0.82
45 | B7 | 0.0029 | 0.05
46 | B8 | 0.0328 | 0.58

biological target: T6, human FcgRIIIa F158 extracellular domain (human, UniProt P08637 17-208); experiment: SPR 25C
T6 construct: extracellular domain; also called hFcgRIIIaF
T6 sequence (P08637 17-208): as the sequence (P08637 17-208 F176V) above, with V160F counted along it
Experimental: as §1

Row | Binder | binding per 1RU antibody [RU] | relative binding (A375-G1T3/B167-Lamlib=1)
47 | B1 | 0.0213 | 1
48 | B2 | 0.0007 | 0.04
49 | B3 | -0.0009 | -0.04
50 | B4 | 0.0056 | 0.26
51 | B5 | 0.0006 | 0.03
52 | B6 | 0.0009 | 0.04
53 | B7 | 0.0001 | 0
54 | B8 | 0.0007 | 0.03
